Assay results: PMC7048787, “MCL1 binding to the reverse BH3 motif of P18INK4C couples cell survival to cell proliferation” (Cell Death & Disease, 2020)
No end group written: not given here.

B1: P18^INK4C: human P18 [Uniprot: P42773] (residues 1–168), His6-tagged recombinant protein (protein)
chain: MAEPWGNELASAAARGDLEQLTSLLQNNVNVNAQNGFGRTALQVMKLGNPEIARRLLLRGANPDLKDRTGFAVIHDAARAGFLDTLQTLLEFQADVNIEDNEGNLPLHLAAKEGHLRVVEFLVKHTASNVGHRNHKGDTACDLARLYGRNEVVSLMQANGAGGATNLQ
modifications: left off: His6, N-terminal, state not stated
notes: human P18 [Uniprot: P42773]; (residues 1–168), His6-tagged recombinant protein
B2: ANK1–4: P18 residues 1–140, truncation that removes the rBH3-containing fifth ankyrin repeat (protein)
chain: MAEPWGNELASAAARGDLEQLTSLLQNNVNVNAQNGFGRTALQVMKLGNPEIARRLLLRGANPDLKDRTGFAVIHDAARAGFLDTLQTLLEFQADVNIEDNEGNLPLHLAAKEGHLRVVEFLVKHTASNVGHRNHKGDTA
modifications: left off: His6, N-terminal, state not stated
notes: P18 residues 1–140, truncation that removes the rBH3-containing fifth ankyrin repeat
B3: ANK4–5: P18 residues 106–168, retains the rBH3 domain and ankyrin repeat 4 (protein)
chain: PLHLAAKEGHLRVVEFLVKHTASNVGHRNHKGDTACDLARLYGRNEVVSLMQANGAGGATNLQ
modifications: left off: His6, N-terminal, state not stated
B4: chimera: chimeric protein consisting of P16-ANK1–3 and P18-ANK4–5 (P16 residues 1–113 and P18 residues 106–168) (protein)
chain: MEPAAGSSMEPSADWLATAAARGRVEEVRALLEAGALPNAPNSYGRRPIQVMMMGSARVAELLLLHGAEPNCADPATLTRPVHDAAREGFLDTLVVLHRAGARLDVRDAWGRLPLHLAAKEGHLRVVEFLVKHTASNVGHRNHKGDTACDLARLYGRNEVVSLMQANGAGGATNLQ
modifications: left off: His6, N-terminal, state not stated
B5: P16: recombinant P16 [Uniprot: P42771] (residues 1–156), negative control (protein)
chain: MEPAAGSSMEPSADWLATAAARGRVEEVRALLEAGALPNAPNSYGRRPIQVMMMGSARVAELLLLHGAEPNCADPATLTRPVHDAAREGFLDTLVVLHRAGARLDVRDAWGRLPVDLAEELGHRDVARYLRAAAGGTRGSNHARIDAAEGPSDIPD
modifications: left off: His6, N-terminal, state not stated
notes: recombinant P16 [Uniprot: P42771]; (residues 1–156), negative control
B6: P18 protein (human P18INK4C residues 1-168), recombinant (natural protein, UniProt P42773 1-168, looked up)
chain: B1 chain
notes: Human P18 (P18INK4C, CDKN2C), residues 1-168, called full-length P18 protein in the results; The purification of this protein is not described; only that of His6-MCL1 is; also called CDKN2C; full-length P18 protein; source: E. coli BL21(DE3), recombinant
B7: P18 21-mer peptide (P18 residues 141-161) (peptide, UniProt P42773 141-161, looked up)
peptide: CDLARLYGRNEVVSLMQANGA
notes: Human P18 (P18INK4C), residues 141-161, holding the rBH3 motif (150-161); Made on rink amide MBHA resin, so the C-terminus is probably an amide (surmised); also called P18x peptides; source: synthetic peptide

Tested on: recombinant MCL1 (rMCL1)
Experiment: In vitro pulldown of recombinant MCL1 by recombinant P18/P16 constructs
Format: binding, human
Conditions: Western blot of in vitro pulldown, recombinant proteins (IP), rMCL1 (IB), Fig. 2b
Source text: Human MCL1 [Uniprot: Q07820] (residues 163–326), human P18 [Uniprot: P42773] (residues 1–168), A1–4 (P18 residues 1–140), A4–5 (P18 residues 106–168), P16 [Uniprot: P42771] (residues 1–156), and AC (P16 residues 1–113 and P18 residues 106–168) were sequence-optimized for bacterial expression and cloned into the restriction sites of NdeI and HindIII in a pET28a vector (EMD Millipore) to incorporate a N-terminal hexa-histidine (His6) tag and transformed into BL21(DE3) E. Coli (New England Bio Labs). Cultures were grown under kanamycin selection in Luria broth to a 600 nm optical density of 0.6 and expression was induced by addition of 1 mM isopropyl β-D-1-thiogalactopyranoside (Thermo Fisher). Cultures were harvested 3–4 h after induction by centrifugation at 4700 × g. Resulting bacterial pellets were stored at −80 °C. His6-MCL1 bacterial pellets were re-suspended (10 mL/wet g of pellet) in Buffer A (1 × PBS, pH 6.8) with the addition of 1× lysozyme (0.25 mg/mL) (Thermo Fisher) and 1 protease inhibitor tablet (Pierce #88266), sonicated, and cleared at 14,000 × g. Resulting lysate was purified on NGC FPLC (Bio-Rad Laboratories) using a 1 mL HiTrap HP nickel column (GE Healthcare) equilibrated with Buffer A. Protein was eluted with a 2 mM–1000 mM imidazole gradient. His-MCL1 containing fractions, as identified by denaturing polyacrylamide gel electrophoresis, were further purified by gel filtration in Buffer B (1× PBS, pH 6.8) on a HiPrep 16/60 Sephacryl S-100 column (GE Healthcare). Resulting protein identity was confirmed by matrix-assisted laser desorption/ionization (MALDI) mass spectrometry.
Fig. 2 MCL1 binds specifically to P18 through C-terminal rBH3. a Western blot of endogenous coIP of MCL1 (IP) with P18 (IB), BAX (IB), and P18 (IB) in WAC2. b Western blot of in vitro pulldown of recombinant proteins (IP), ANK1–4, ANK4–5, P18, p16, and chimera, with recombinant MCL1 (rMCL1) (IB). Cartoon of the p16, P18, and chimera proteins are shown below the blot. rBH3-containing helix is highlighted in yellow (Residues: 150–161). c Western blot of in vitro pulldown of recombinant P18 (IP) with rMCL1 (IB) with and without MCL1 inhibitor S63845.
P18 is a member of the INK4 protein family [P16INK4A (P16, CDKN2A), P15INK4B (P15, CDKN2B), P18INK4C (P18, CDKN2C), and P19INK4D (P19, CDKN2D)] that regulate G1/S cell cycle progression with all INK4 proteins retaining homologous CDK4/6 inhibitory function. INK4 family proteins have homologous structures containing either four or five ankyrin (ANK) repeats, a helix-turn-helix structural unit known to mediate protein-protein interactions[15],[17]. […] The rBH3 in P18 resides in its fifth ankyrin repeat (residues 141–168). […] Based on prior stability studies of ankyrin repeats within INK4 family proteins[18],[19], we designed two truncations of P18 (Supplementary Table S1). The first, P18-ANK1–4 (ANK1–4), removes the rBH3-containing fifth ankyrin repeat. The second, P18-ANK4–5 (ANK4–5), retains the rBH3 domain as well as ankyrin repeat 4 to facilitate folding.

| Molecule | pull-down of recombinant MCL1 |
| --- | --- |
| B1 | successfully pulled down MCL1 |
| B2 | showed no interaction |
| B3 | successfully pulled down MCL1 |
| B4 | gained the ability to pulldown recombinant MCL1 |
| B5 | showed no interaction |

Target: T1, His6-MCL1 (human MCL1 residues 163-326) (human, UniProt Q07820 163-326)
T1 construct: Named His6-MCL1 in the FPA; called rMCL1 in the pull-downs; also called His-MCL1; recombinant MCL1; source: E. coli BL21(DE3), purified (nickel column, gel filtration); not shown: His6, N-terminal, kept
Experiment: fluorescence polarisation; competition FPA: 100 nM His6-MCL1 with variable unlabeled P18 protein or peptides for 10 min at RT, then 10 nM FITC-AHX-BAK for 1 h; 1x PBS pH 7.4, 100 uL, 96-well plates
Conditions: not given

T1 sequence (Q07820 163-326): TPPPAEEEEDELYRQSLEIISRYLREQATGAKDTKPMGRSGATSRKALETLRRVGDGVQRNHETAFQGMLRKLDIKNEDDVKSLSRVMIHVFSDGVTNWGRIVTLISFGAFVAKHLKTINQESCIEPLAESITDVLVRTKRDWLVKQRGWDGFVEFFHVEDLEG

| IC50 | Molecule |
| --- | --- |
| 2500 nM | P18 12-mer peptide (P18 rBH3) (from UniProt P42773 150-161) |

Same assay, conditions: both partners purified

| IC50 | Molecule |
| --- | --- |
| 113 nM | B6 |
| > 30000 nM | CDLARLYGRNEVVSLAQANGA (not fully specified (C-terminus)) [P18 rBH3 peptide with alanine substitution of M156] |
| > 30000 nM | CDLARLYGRNAVVSLMQANGA (not fully specified (C-terminus)) [P18 rBH3 peptide with alanine substitution of E151] |
| 778 nM | B7 |
